In US20250326792A1, “A FORMULATION FOR TREATMENT OF PIGMENTARY DISORDERS” (priority 2022, published 2025):
PHPP = 3-Phenylpyrazolo[3,4-d]pyrimidine (N-terminal cap)

Key:
[1] = tested on: Tyrosinase; assay: Tyrosinase activity assay (L-DOPA) in B16F10 cells; type: cell-based; conditions: for % increase in tyrosinase activity compared to control / Change in tyrosinase activity: TYROSINASE ACTIVITY table
Method: (§1) Culture and maintenance of cell lines: B16F10 cells were cultured in RPMI containing 10% fetal bovine serum, 100 units per millilitre (U/mL) penicillin, 0.1 mg/mL streptomycin, and 0.25 microgram per millilitre (μg/mL) amphotericin B at 37 degrees Celsius in a humidified 95% air/5% CO2 incubator. Drug treatment was done 24 hours after seeding. Cells were harvested 48 hours later and melanin content and tyrosinase activity determined in triplicate. NHEM cells were cultured in DMEM containing 10% fetal bovine serum, 100 units per milliliter (U/mL) penicillin, 0.1 mg/mL streptomycin, and 0.25 microgram per millilitre (μg/mL) amphotericin B at 37 degrees Celsius in a humidified 95% air/5% CO2 incubator. Drug treatment was done 24 hours after seeding. Cells were harvested 48 hours later and melanin content and tyrosinase activity determined in triplicate.
(§2) IS103 was dissolved in water for injection or DMSO to prepare stock solution of about 50 mg/ml. The stock solution was used for preparation of subsequent dilutions in solvent to achieve working dilutions for treatment ranging 0.1 μg/ml to 1000 μg/ml.
Tyrosinase activity was determined using L-DOPA as a substrate. Briefly, B16F10 and NHEM cells were seeded in a 6-well plate (2×10^4 cells/well) and incubated for overnight. The cells were then treated with or without the test compounds for 46 hours and were washed twice with ice cold PBS and extracted by sonication in 100 μl of 0.1M Tris-HCl buffer (pH 7.2) containing 1% Nonidet P-40, 0.01% SDS, 100 μM phenyl methyl sulfonyl fluoride, and 1 μg/ml aprotinin and then centrifuged at 10,000 g for about 10 minutes at 4° C. The supernatants collected were used for enzyme assay and its protein content was estimated by method of Bradford using BSA as standard. Samples of cell extract supernatant were incubated in duplicate for 1 hour at 37° C. in 1 ml of 0.1M sodium phosphate buffer (pH 7.4) containing 0.1% L-DOPA. The absorbance was then monitored at 450 nm and compared with purified mushroom tyrosinase (Sigma). The standard curve was prepared limiting linearity within the range of experimental value.

[2] = tested on: B16F10 cells; assay: Melanin content assay in B16F10 cells; type: cell-based; conditions: for % increase in melanin content compared to control / Fold change in melanin content: B16F10 CELLS
Method: as §1, §2
Cells were seeded in a 6-well plate (2×10^4 cells/well) and incubated overnight to allow the cells to adhere. After treating with various test samples for 4 or 5 days, cells were washed with phosphate-buffered saline (PBS), trypsinized, counted, and then lysed in 1 N NaOH at 100° C. for about 1 hour. The melanin content in each sample was calculated by comparison of absorbance at 400 nm of unknown samples with a standard curve obtained using synthetic melanin. […] B16F10 and NHEM cells were treated with different concentrations of IS103 ranging from 0.1 to 1000 μg/ml and analysed melanin contents in cells. […] To assess the toxicity of the IS103 peptide, cell viability was analyzed by MTT assay.

[3] = Stability of IS103 API, accelerated (Condition 1, 5±3° C.); type: physicochemical
Method: The purpose of stability testing is to provide evidence on how the quality of a drug substance or drug product varies with time under the influence of a variety of environmental factors such as temperature, humidity, etc. and to establish a re-test period for the drug substance or a shelf life for the drug product and recommended storage conditions. The study was conducted according to the WHO and schedule-Y guidelines.
The IS103 API is a lyophilized white fluffy powder, and it was filled at sterile condition in glass injection vial which has airlock-rubber capping. This container closure system is same as or simulates the packaging proposed for storage and distribution.
The following test attributes have been selected according to the above said guidelines: • appearance; odour; colour; colour of solution (when IS103 API is soluble in solvent); clarity of solution; degradation and assessment of container closure system.
The studies were conducted under appropriate storage conditions (with appropriate tolerances) that test IS103 API thermal stability and its sensitivity to moisture. The IS103 API is intended for storage for 36 months. Accordingly, long term stability studies were done for 36 months. The details of the storage conditions have been furnished hereunder.

[4] = B16F10 cells, different concentrations, about 48 hours

Substance: PHPP-Tyr-Arg-Ser-Arg-Lys-Tyr-Ser-Ser-Trp-Tyr-NH2 ({PHPP}-YRSRKYSSWY-NH2) [IS103]
- increase in Tyrosinase activity when compared to control ([1]; B16F10 CELLS, 250 μg/mL): 55.33%
- effect on tyrosinase activity (FIG. 6) [1, 4]: increased tyrosinase activity
- % increase in tyrosinase activity compared to control ([1]; B16F10 CELLS, 0.1 μg/mL): 0%
- Change in tyrosinase activity ([1]; B16F10 CELLS, 0.1 μg/mL): 15.0 ± 1.60
- % increase in tyrosinase activity compared to control ([1]; B16F10 CELLS, 1 μg/mL): 3%
- Change in tyrosinase activity ([1]; B16F10 CELLS, 1 μg/mL): 18.0 ± 2.20
- % increase in tyrosinase activity compared to control ([1]; B16F10 CELLS, 10 μg/mL): 10.33%
- Change in tyrosinase activity ([1]; B16F10 CELLS, 10 μg/mL): 25.3 ± 1.20
- % increase in tyrosinase activity compared to control ([1]; B16F10 CELLS, 50 μg/mL): 24%
- Change in tyrosinase activity ([1]; B16F10 CELLS, 50 μg/mL): 39.0 ± 2.20
- % increase in tyrosinase activity compared to control ([1]; B16F10 CELLS, 100 μg/mL): 42.33%
- Change in tyrosinase activity ([1]; B16F10 CELLS, 100 μg/mL): 57.3 ± 4.20
- % increase in tyrosinase activity compared to control ([1]; B16F10 CELLS, 250 μg/mL): 55.33%
- Change in tyrosinase activity ([1]; B16F10 CELLS, 250 μg/mL): 70.3 ± 1.70
- % increase in tyrosinase activity compared to control ([1]; B16F10 CELLS, 500 μg/mL): 62%
- Change in tyrosinase activity ([1]; B16F10 CELLS, 500 μg/mL): 77.0 ± 3.00
- % increase in tyrosinase activity compared to control ([1]; B16F10 CELLS, 1000 μg/mL): 60.33%
- Change in tyrosinase activity ([1]; B16F10 CELLS, 1000 μg/mL): 75.3 ± 2.50
- % increase in melanin content compared to control ([2]; 0.1 μg/mL): 0%
- Fold change in melanin content ([2]; 0.1 μg/mL): 1.0 ± 0.20
- % increase in melanin content compared to control ([2]; 1 μg/mL): 0%
- Fold change in melanin content ([2]; 1 μg/mL): 1.0 ± 0.30
- % increase in melanin content compared to control ([2]; 10 μg/mL): 20%
- Fold change in melanin content ([2]; 10 μg/mL): 1.2 ± 0.10
- % increase in melanin content compared to control ([2]; 50 μg/mL): 60%
- Fold change in melanin content ([2]; 50 μg/mL): 1.6 ± 0.20
- % increase in melanin content compared to control ([2]; 100 μg/mL): 125%
- Fold change in melanin content ([2]; 100 μg/mL): 2.3 ± 0.30
- % increase in melanin content compared to control ([2]; 250 μg/mL): 180%
- Fold change in melanin content ([2]; 250 μg/mL): 2.8 ± 0.20
- % increase in melanin content compared to control ([2]; 500 μg/mL): 190%
- Fold change in melanin content ([2]; 500 μg/mL): 2.9 ± 0.10
- % increase in melanin content compared to control ([2]; 1000 μg/mL): 176%
- Fold change in melanin content ([2]; 1000 μg/mL): 2.8 ± 0.30
- concentration sufficient to significantly enhance melanin synthesis ([2]; B16F10 and NHEM cells, not distinguished): 10 µg/mL
- effect on melanin synthesis (FIG. 4) [2, 4]: enhanced melanin synthesis in a dose-dependent manner
- API calculated on the anhydrous basis ([3]; 5±3° C., 1 M): 99.68%
- Appearance white to off white amorphous powder ([3]; 5±3° C., 1 M): White
- Related substances (By HPLC) Any Max Impurity ([3]; 5±3° C., 1 M): 0.35%
- Related substances (By HPLC) Total Impurity ([3]; 5±3° C., 1 M): 2.23%
- Solubility Sparingly soluble in water ([3]; 5±3° C., 1 M): Complies
- Water Content (By Karl Fischer-Titrator) ([3]; 5±3° C., 1 M): 4.27% w/w
- Internal change in attributes: Appearance ([3]; 5±3° C., 1st month): No change
- Internal change in attributes: Clarity of solution ([3]; 5±3° C., 1st month): No change
- Internal change in attributes: Color ([3]; 5±3° C., 1st month): No change
- Internal change in attributes: Color of solution ([3]; 5±3° C., 1st month): No change
- Internal change in attributes: Odor ([3]; 5±3° C., 1st month): No change
- Internal change in attributes: Appearance ([3]; 5±3° C., 2nd month): No change
- Internal change in attributes: Clarity of solution ([3]; 5±3° C., 2nd month): No change
- Internal change in attributes: Color ([3]; 5±3° C., 2nd month): No change
- Internal change in attributes: Color of solution ([3]; 5±3° C., 2nd month): No change
- Internal change in attributes: Odor ([3]; 5±3° C., 2nd month): No change
- API calculated on the anhydrous basis ([3]; 5±3° C., 3 M): 99.14%
- Appearance white to off white amorphous powder ([3]; 5±3° C., 3 M): White
- Related substances (By HPLC) Any Max Impurity ([3]; 5±3° C., 3 M): 0.40%
- Related substances (By HPLC) Total Impurity ([3]; 5±3° C., 3 M): 2.30%
- Solubility Sparingly soluble in water ([3]; 5±3° C., 3 M): Complies
- Water Content (By Karl Fischer-Titrator) ([3]; 5±3° C., 3 M): 4.29% w/w
- Internal change in attributes: Appearance ([3]; 5±3° C., 3rd month): No change
- Internal change in attributes: Clarity of solution ([3]; 5±3° C., 3rd month): No change
- Internal change in attributes: Color ([3]; 5±3° C., 3rd month): No change
- Internal change in attributes: Color of solution ([3]; 5±3° C., 3rd month): No change
- Internal change in attributes: Odor ([3]; 5±3° C., 3rd month): No change
- API calculated on the anhydrous basis ([3]; 5±3° C., 6 M): 99.00%
- Appearance white to off white amorphous powder ([3]; 5±3° C., 6 M): White
- Related substances (By HPLC) Any Max Impurity ([3]; 5±3° C., 6 M): 0.49%
- Related substances (By HPLC) Total Impurity ([3]; 5±3° C., 6 M): 2.44%
- Solubility Sparingly soluble in water ([3]; 5±3° C., 6 M): Complies
- Water Content (By Karl Fischer-Titrator) ([3]; 5±3° C., 6 M): 4.87% w/w
- Internal change in attributes: Appearance ([3]; 5±3° C., 6th month): No change
- Internal change in attributes: Clarity of solution ([3]; 5±3° C., 6th month): No change
- Internal change in attributes: Color ([3]; 5±3° C., 6th month): No change
- Internal change in attributes: Color of solution ([3]; 5±3° C., 6th month): No change
- Internal change in attributes: Odor ([3]; 5±3° C., 6th month): No change
- API calculated on the anhydrous basis ([3]; 5±3° C., Initial): 99.73%
- Appearance white to off white amorphous powder ([3]; 5±3° C., Initial): White
- Related substances (By HPLC) Any Max Impurity ([3]; 5±3° C., Initial): 0.39%
- Related substances (By HPLC) Total Impurity ([3]; 5±3° C., Initial): 2.09%
- Solubility Sparingly soluble in water ([3]; 5±3° C., Initial): Complies
- Water Content (By Karl Fischer-Titrator) ([3]; 5±3° C., Initial): 4.18% w/w
- found to be stable for ([3]; accelerated condition, 5±3° C.): 6 months
- stable for ([3]; refrigerator (5±3° C.) conditions): 36 months
